This note sets out measurements from patent publication US20210380702A1 (Regeneron, published 2021).

This assay addresses T1, recombinant human PD-L1 expressed with a C-terminal myc-myc-hexahistidine tag (hPD-L1-MMH) (human).
T1 construct: Monomeric PD-L1 reagent; also called hPD-L1-MMH Monomer
As to the kind of experiment: SPR, captured mAb, 25 C. Here is the method:
Binding association and dissociation rate constants (kₐ and kd, respectively), equilibrium dissociation constants and dissociation half-lives (KD and t_{1/2}, respectively) of antigen binding to purified anti-PD-L1 monoclonal antibodies were determined using a real-time surface plasmon resonance biosensor assay on a Biacore 4000 instrument. The Biacore sensor surface was either derivatized with polyclonal rabbit anti-mouse antibody (GE, #BR-1008-38) or with monoclonal mouse anti-human Fc antibody (GE, #BR-1008-39) to capture approximately 200-300 RUs of anti-PD-L1 monoclonal antibodies, expressed with either a mouse Fc or with human Fc, respectively. […] Different concentrations of PD-L1 reagents were injected over the anti-PD-L1 monoclonal antibody captured surface at a flow rate of 30 μL/min. The binding of the PD-L1 reagents to the captured monoclonal antibodies was monitored for 3 to 4 minutes while the dissociation of antibody bound PD-L1 reagents was monitored for 10 minutes in HBST running buffer (0.01 M HEPES pH 7.4, 0.15 M NaCl, 3 mM EDTA, 0.05% v/v Surfactant tween-20). Experiments were performed at either 25° C. or 37° C. Kinetic association (kₐ) and dissociation (kd) rate constants were determined by processing and fitting the data to a 1:1 binding model using Scrubber 2.0c curve fitting software. Binding dissociation equilibrium constants (KD) and dissociative half-lives (t_{1/2}) were then calculated from the kinetic rate constants as: KD (M)=kd/kₐ and t_{1/2} (min)=[In2/(60*kd)].

T1 sequence (chain, as listed by the source limits assumed): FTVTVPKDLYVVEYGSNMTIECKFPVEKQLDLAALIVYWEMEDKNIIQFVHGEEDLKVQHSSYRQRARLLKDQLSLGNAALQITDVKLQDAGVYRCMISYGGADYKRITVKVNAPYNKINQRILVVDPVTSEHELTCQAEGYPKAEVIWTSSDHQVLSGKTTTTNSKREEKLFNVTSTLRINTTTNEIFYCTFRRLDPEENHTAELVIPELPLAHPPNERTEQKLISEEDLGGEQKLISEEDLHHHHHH

B1: H1H9345P2 (antibody, human IgG1, V domains shown)
VH: EVQLVESGGGLVQPGGSLRLSCAASGFTISTNYMNWVRQAPGKGLEWVAVIYSSGSTYYIDSVKGRFTISRLTSKNTVYLQMSSLNSEDTAVYYCARGIRGFDIWGQGTMVTVSS
VL: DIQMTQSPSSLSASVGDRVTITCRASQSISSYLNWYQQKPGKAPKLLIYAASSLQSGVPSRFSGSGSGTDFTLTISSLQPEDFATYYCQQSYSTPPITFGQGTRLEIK
As to B1, the Kd was 165 nM, the off-rate (koff) was found to be 0.0149 s⁻¹, the kon worked out at 90200 M⁻¹ s⁻¹ and the t1/2 was 0.8 min.

B2: H1H9354P2 (antibody, human IgG1, V domains shown)
VH: EVQLVESGGGLVQPGGSLRLSCEASGFTVGVNHMNWVRQAPGKGLEWVSVIFSSGRTFYGDYVKGRLTIFRQTSQNTVYLQMNSLRSEDTAIYYCARGIGGLDIWGRGTMVTVSS
VL: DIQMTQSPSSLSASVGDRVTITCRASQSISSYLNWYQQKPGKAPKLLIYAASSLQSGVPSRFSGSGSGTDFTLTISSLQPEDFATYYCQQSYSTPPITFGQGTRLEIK
Regarding B2, the Kd came to 8.04 nM, the off-rate (koff) was 0.000383 s⁻¹, the kon worked out at 47600 M⁻¹ s⁻¹ and the t1/2 was 30 min.

B3: H2aM8314N (antibody, mouse IgG2, V domains shown)
VH: EVQLVESGGGVVRPGGSLRLSCAASGFTFDDYGMTWVRQAPGRGLEWVSGIHWHGKRTGYADSVKGRFTISRDNAKKSLYLQMNSLKGEDTALYHCVRGGMSTGDWFDPWGQGTLVIVSS
VL: DIQMTQSPSSLSASLGDRVTITCRASQSINSYLNWYQQKPGKAPKLLIYVASSLQSGVPSRFSGSGSGTEFTLTISNLQPEDFATYYCQQSYSTPPITFGQGTRLEIK
notes: also called H2M8314N
As for B3, the dissociation constant Kd came out at 0.0558 nM, the koff turned out to be 5.17e-05 s⁻¹, the on-rate constant (kon) is 925000 M⁻¹ s⁻¹ and the t1/2 was 224 min.

B4: H2aM8317N (antibody, mouse IgG2, V domains shown)
VH: EVQLVESGGGLVQPGGSLRLSCAASGFTVGSNYMNWVRQAPGKGLEWVSVIYSGGSTYYADSVKGRFTISRLTSKNTLYLQMSSLRPEDTAVYYCARGIRGLDVWGQGTTVTVSS
VL: DIQMTQSPSSLSASVGDRVTITCRASQTINIYLNWYQQKPGRAPRLLIYAASSLQSGVPSRFSGSGSGTDFTLTISSLQPEDFATYYCHQSYSTPPITFGQGTRLEIK
notes: also called H2M8317N
In the case of B4, the equilibrium dissociation constant (Kd) came to 421 nM, the dissociation rate constant (koff) stood at 0.0395 s⁻¹, the on-rate (kon) amounted to 94000 M⁻¹ s⁻¹ and the t1/2 is 0.3 min.

B5: H2aM8321N (antibody, mouse IgG2, V domains shown)
VH: EERLVESGGDLVQPGGSLRLSCAASGITVGTNYMNWVRQAPGKGLEWVSVISSGGNTHYADSVKGRFIMSRQTSKNTLYLQMNSLETEDTAVYYCARGIRGLDVWGQGTMVTVSS
VL: DIQMTQSPSSLSASVGDRVTITCRASQSMSSYLNWYQQKPGRAPKLLIFAASSLQSGVPSRFSGSGSGTDFTLTISSLQPEDFATYYCQQSYSTPPITFGQGTRLEIK
notes: also called H2M8321N
For B5, the dissociation constant Kd turned out to be 34.9 nM, the koff turned out to be 0.00359 s⁻¹, the on-rate (kon) is 103000 M⁻¹ s⁻¹ and the t1/2 was 3.2 min.

B6: H1H9382P2 (antibody, human IgG1, V domains shown)
VH: EVQLVESGGGLVQPGGSLRLSCAASGFTVGTNFMNWVRQAPGKGLEWVSAIYSGGTANYADSVKGRFTISRDTSRNTLYLQMNSLRTEDTAVYYCARGGGMDVWGQGTTVTVSS
VL: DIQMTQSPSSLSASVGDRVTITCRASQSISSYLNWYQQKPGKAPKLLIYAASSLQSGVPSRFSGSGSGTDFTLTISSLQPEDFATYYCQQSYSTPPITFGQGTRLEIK
Take B6: the Kd amounted to 60.6 nM, the dissociation rate constant (koff) was determined as 0.00479 s⁻¹, the kon came to 79000 M⁻¹ s⁻¹ and the t1/2 was 2.4 min.

B7: H2aM8309N (antibody, mouse IgG2, V domains shown)
VH: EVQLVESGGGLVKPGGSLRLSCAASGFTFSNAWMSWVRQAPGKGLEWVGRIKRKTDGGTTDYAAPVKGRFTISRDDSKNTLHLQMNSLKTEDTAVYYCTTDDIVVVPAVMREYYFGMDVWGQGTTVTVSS
VL: DIQMTQSPSSLSASVGDRVTITCRTSQGIRNDLGWYQQKPGKAPKRLIYAASSLQSGVPSRFSGSGSGTEFTLTISSLQPEDFATYYCLQHNNYPYTFGQGTKLEIK
notes: also called H2M8309N
Regarding B7, the dissociation constant Kd was 16.3 nM, the off-rate (koff) stood at 0.0104 s⁻¹, the kon worked out at 642000 M⁻¹ s⁻¹ and the t1/2 turned out to be 1.1 min.

B8: H1H9329P (antibody, human IgG1, V domains shown)
VH: EVQLVESGGGLVQSGGSLRLSCAASGFTFSSYWMSWVRQAPGKGLEWVANIKQDGSEKYYVDSVKGRFTISRDNAKNSLYLQMNSLRADDTAVYYCARDDIVVVPAPMGYYYYYFGMDVWGQGTTVTVSS
VL: DIQMTQSPSSLSASVGDRVTITCRASQGIRNDLGWYQQKPGKAPKRLIYAASSLQSGVPSRFSGSGSGTEFTLTISSLQPEDFATYYCLQHNSYPYTFGQGTKLEIK
Turning to B8, the Kd is 75.8 nM, the koff is 0.134 s⁻¹, the kon amounted to 1.77e+06 M⁻¹ s⁻¹ and the t1/2 amounted to 0.1 min.

B9: H1H9364P2 (antibody, human IgG1, V domains shown)
VH: EVQLVESGGGLVQPGRSLRLSCAASGFTFDDYALHWVRQAPGKGLEWVSGISWTGGTIDYADSVKGRFTISRDNAKNSLYLQMSSLRTEDTAIYYCTRDIRGNWKYGGWFDPWGQGTLVTVSS
VL: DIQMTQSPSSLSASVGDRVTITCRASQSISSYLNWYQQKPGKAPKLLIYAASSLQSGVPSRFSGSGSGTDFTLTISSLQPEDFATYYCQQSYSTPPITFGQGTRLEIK
B9: the Kd came out at 0.321 nM, the dissociation rate constant (koff) turned out to be 0.000299 s⁻¹, the kon amounted to 932000 M⁻¹ s⁻¹ and the t1/2 was determined as 39 min.

B10: H1H9387P2 (antibody, human IgG1, V domains shown)
VH: QVQLVQSGAEVKKPGSSVKVSCKASGGTFNTYVLSWVRQAPGQGLEWMGEIIPILGAANYAQNFQGRVTFTTDESTNTAYMDLSSLRSEDTAVYYCARDRTSGGFDPWGQGTLVTVSS
VL: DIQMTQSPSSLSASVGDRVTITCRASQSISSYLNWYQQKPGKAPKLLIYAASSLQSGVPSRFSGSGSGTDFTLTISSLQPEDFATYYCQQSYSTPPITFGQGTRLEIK
Turning to B10, the Kd was 22.1 nM, the koff is 0.0582 s⁻¹, the kon amounted to 2.64e+06 M⁻¹ s⁻¹ and the t1/2 was determined as 0.2 min.

B11: H2aM8310N (antibody, mouse IgG2, V domains shown)
VH: QVQLVQSGAEVKKPGASVQVSCKASGYSFTGYYIHWVRQAPGQGLEWMGWINPNSGTKKYAHKFQGRVTMTRDTSIDTAYMILSSLISDDTAVYYCARDEDWNFGSWFDSWGQGTLVTVSS
VL: DIVMTQTPLSSPVTLGQPASISCRSSQTLVHGDGNTYLSWIQQRPGQPPRLLIYKVSNQFSGVPDRFSGSGAGTDFTLKISRVEAEDVGLYFCMQATHFPITFGQGTRLEIK
notes: also called H2M8310N
For the molecule B11, the dissociation constant (Kd) was 3.5 nM, the off-rate constant (koff) was found to be 0.00031 s⁻¹, the on-rate (kon) stood at 88600 M⁻¹ s⁻¹ and the t1/2 was found to be 37 min.

B12: H2aM8312N (antibody, mouse IgG2, V domains shown)
VH: QVHLVQSGAEVKKPGASVKVSCKASGYTFTGYYIHWVRQAPGHGLEWMGWLNPNTGTTKYIQNFQGRVTMTRDTSSSTAYMELTRLRSDDTAVYYCARDEDWNYGSWFDTWGQGTLVTVSS
VL: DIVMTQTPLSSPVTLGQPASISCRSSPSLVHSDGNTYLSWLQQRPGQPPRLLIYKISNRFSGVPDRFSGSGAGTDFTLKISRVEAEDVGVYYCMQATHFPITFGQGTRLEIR
notes: also called H2M8312N
Turning to B12, the Kd was found to be 9.51 nM, the koff worked out at 0.000722 s⁻¹, the on-rate (kon) turned out to be 75900 M⁻¹ s⁻¹ and the t1/2 worked out at 16 min.

B13: H2aM8306N (antibody, mouse IgG2, V domains shown)
VH: EVQLVESGGGLVQPGGSLRLSCAASGFTFSRFWMSWVRQAPGKGLEWVANINQDGTEKYYVDSVKGRFTISRDNAKNSLYLQMNSLRAGDTAVYYCANTYYDFWSGHFDYWGQGTLVTVSS
VL: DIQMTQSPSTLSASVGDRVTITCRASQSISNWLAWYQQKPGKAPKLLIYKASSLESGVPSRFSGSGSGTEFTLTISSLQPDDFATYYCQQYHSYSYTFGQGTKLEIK
notes: also called H2M8306N
B13: the dissociation constant Kd was 69.6 nM, the koff stood at 0.01 s⁻¹, the on-rate (kon) was found to be 144000 M⁻¹ s⁻¹ and the t1/2 is 1.2 min.

B14: H2aM8323N (antibody, mouse IgG2, V domains shown)
VH: QVQLVQSGAEVKMPGSSVRVSCKASGGIFSSSTISWVRQAPGQGLEWMGEIIPVFGTVNYAQKFQDRVIFTADESTTTAYMELSSLKSGDTAVYFCARNWGLGSFYIWGQGTMVTVSS
VL: EIVLTQSPGTLSLSPGERATLSCRASQSFNFNYLAWYQQKPGQAPRLLIYGASSRATGIPDRFSGSGSGTDFTLTINRLEPEDFGVFYCQQYESAPWTFGQGTKVEIK
notes: also called H2M8323N
As to B14, the Kd amounted to 0.238 nM, the koff is 0.000223 s⁻¹, the association rate constant (kon) worked out at 937000 M⁻¹ s⁻¹ and the t1/2 is 52 min.

B15: H1H9336P (antibody, human IgG1, V domains shown)
VH: EVQLVESGGGLVQPGRSLRLSCAASGFTFDDFAMHWVRQAPGKGLEWVSGISWTGGNMDYANSVKGRFTISREDAKNSLYLQMNSLRAADTALYYCVKDIRGIVATGGAFDIWGRGTMVTVSS
VL: DIQMTQSPSSLSASVGDRVTISCRASQTISTYLNWFQQKPGKAPKLLIYVVSSLQSGVPSRFSGSGSGTDFTLTISSLQPEDFATYYCQQSYSTPFTFGPGTKVDIK
Take B15: the Kd amounted to 0.492 nM, the koff stood at 0.00039 s⁻¹, the association rate constant (kon) stood at 792000 M⁻¹ s⁻¹ and the t1/2 is 30 min.
